According to article PMC9321951, “Thiol redox switches regulate the oligomeric state of cyanobacterial Rre1, RpaA and RpaB response regulators” (Febs Letters, 2022):
Where “and” joins values, the source holds several entries; their conditions need not be identical. Equal entries are not always repeated. One block for each molecule: values may come before it.

How the values were obtained:
[1] = molecular target: Regulator of Photosynthesis and Photopigment-related gene expression A (RppA), full-length, MBP-tagged (Synechocystis sp. PCC 6803) (UniProt Q55933); assay: non-reducing urea-SDS/PAGE; 2.5 µM RppA with 2 mM diamide, 30 min, room temperature; non-reducing SDS-6 M urea-8% PAGE
[2] = molecular target: Regulator of Photosynthesis and Photopigment-related gene expression A (RppA), full-length, MBP-tagged (Synechocystis sp. PCC 6803) (UniProt Q55933); assay: SEC; RppA oxidised with 2 mM diamide, desalted; 0.85 mg on Superdex S200 10/300GL Increase; 100 mM HEPES pH 8.0, 100 mM NaCl; approximate masses from a calibration curve
[3] = molecular target: Regulator of Phycobilisome Association B (RpaB), full-length, MBP-tagged (Synechocystis sp. PCC 6803); assay: non-reducing urea-SDS/PAGE; 2.5 µM Rre1, RpaA or RpaB, air-exposed untreated or with 2 mM diamide or 2 mM H2O2, 30 min, room temperature; non-reducing SDS-6 M urea-8% PAGE; shows disulfide-linked oligomers
[4] = molecular target: Regulator of Phycobilisome Association B (RpaB), full-length, MBP-tagged (Synechocystis sp. PCC 6803); assay: SEC; RpaB oxidised with 2 mM H2O2, desalted; 0.85 mg on Superdex S200 10/300GL Increase; 5% glycerol, 300 mM NaCl, 100 mM HEPES pH 8.0; approximate masses from a calibration curve
[5] = molecular target: the molecule itself; assay: SEC; Rre1 or RpaA oxidised with 2 mM H2O2, desalted; 0.85 mg on Superdex S200 10/300GL Increase; 100 mM HEPES pH 8.0, 100 mM NaCl; approximate masses from a calibration curve

stoichiometry N [1]: 3
stoichiometry N [2]: 3
Molecule: Regulator of Photosynthesis and Photopigment-related gene expression A (RppA), full-length, MBP-tagged (from UniProt Q55933 1-234) (natural protein)

stoichiometry N [3]: 2
stoichiometry N [4]: 4 and 3
Molecule: Regulator of Phycobilisome Association B (RpaB), full-length, MBP-tagged (natural protein)

B1: Response Regulator 1 (Rre1), full-length, MBP-tagged (natural protein, Synechocystis sp. PCC 6803, UniProt P72781 1-231, looked up)
chain: MAEPISLLLVDDEPGVRESVQAFLEDSGDFKVDLAANATEAWDYLQHHLPALVISDIMMPQVDGYQFLQKLREDARFQSLPVVFLTARGMTGDRIQGYQTGCDAFLSKPFDPDELEAIVRNLLARQQASSDAGSESAKLQEIYQEIRALKEQIGQPSGIHTTPSPIKLDFTPREQSVLDLVSQGLMNKEIAAQLKTSVRNVEKYVSRLFTKTGTNSRTELVRFALQHGLTE
notes: Rre1 (response regulator 1), Synechocystis sp; Cloned KpnI/XhoI into pETG-41A; theoretical mass of the MBP-tagged monomer printed as 75 kDa
stoichiometry N [5]: 3 and 4
